To fix the notation:
B1: IL-20 (ligand)
chain: MLKTLNLGSCVIATNLQEIRNGFSEIRGSVQAKDGNIDIRILRRTESLQDTKPANRCCLLRHLLRLYLDRVFKNYQTPDHYTLRKISSLANSFLTIKKDLRLCHAHMTCHCGEEAMKKYSQILSHFEKLEPQAAVVKALGELDILLQWMEETE
notes: The crystal model holds residues 24-176; also called Interleukin-20; IL-20b
B2: IL22R1ddq/IL20R2-FCkh (Fc fusion)
chain 1: AHAPEDPSDLLQHVKFQSSNFENILTWDSGPEGTPDTVYSIEYKTYGERDWVAKKGCQRITRKSCDLTVETGDLQELYYARVTAVSAGGRSATKMTDRFSSLQHTTLKPPDVTCISKVRSIQMIVHPTPTPIRAGDGHRLTLEDIFHDLFYHLELQVNRTYQMHLGGKQREYEFFGLTPDTEFLGTIMICVPTWAKESAPYMCRVKTLPDRTWTYSGSGGGGPSVFIFPPKIKDVLMISLSPIVTCVVVDVSEDDPDVQISWFVNNVEVHTAQTQTHREDYNSTLRVVSALPIQHQDWMSGKEFKCKVNNKDLPAPIERTISKPKGSVRAPQVYVLPPPCEEMTKKQVTLYCMVTDFMPEDIYVEWTNNGKTELNYKNTEPVLDSDGSYFMYSKLRVEKKNWVERNSYSCSVVHEGLHNHHTTKSFSRTPGKGLEASGGLNDIFEAQKIEWHEGTGHHHHHH
chain 2: DEVAILPAPQQLSVLSTNMKHLLMWSPVIAPGETVYYSVEYQGEYESLYTSHIWIPSSWCSLTEGPECDVTDDITATVPYNLRVRATLGSQTSAWSILKHPFNRQSTILTRPGMEITKDGFHLVIELEDLGPQFEFLVAYWRREPGAEEHVKMVRSGGIPVHLETMEPGAAYCVKAQTFVKAIGRYSAFSQTECVEVQGEAGSGGGGPSVFIFPPKIKDVLMISLSPIVTCVVVDVSEDDPDVQISWFVNNVEVHTAQTQTHREDYNSTLRVVSALPIQHQDWMSGKEFKCKVNNKDLPAPIERTISKPKGSVRAPQVYVLPPPEEEMTKKQVTLTCMVTDFMPEDIYVEWTNNGKTELNYKNTEPVLDSDGSYFMTSKLRVEKKNWVERNSYSCSVVHEGLHNHHTTKSFGGCGTPASGGLNDIFEAQKIEWHE
notes: also called IL-22R1/IL-20R2-FCkh; soluble IL-22R1/IL-20R2 receptor heterodimer

For the test “IL22R1ddq/IL20R2-FCkh”, the target named is B2. In words: SPR with the IL-22R1/IL-20R2-FCkh heterodimer.
In the next test the target is T1, IL-20R1 triple mutant M3 (UniProt Q9UHF4 29-245).
T1 construct: range 29-245; also called IL-20R1 site 3 mutant
T1 sequence (looked up): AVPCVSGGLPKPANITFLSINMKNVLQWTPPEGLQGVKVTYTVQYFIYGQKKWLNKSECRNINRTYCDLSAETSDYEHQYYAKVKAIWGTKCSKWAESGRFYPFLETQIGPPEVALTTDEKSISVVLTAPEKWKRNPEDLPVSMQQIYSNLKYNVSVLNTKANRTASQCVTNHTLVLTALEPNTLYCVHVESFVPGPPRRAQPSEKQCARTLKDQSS
Kind of test: SPR, IL-20 + M3 co-injected over an IL-20R2 chip. As to the method: FIGS. 9A-9D show the IL-20 site 3 interface is essential and distinct from other complexes. FIG. 9A is a ribbon diagram showing the site 3 interface between IL-20R1 and IL-20R2. FIG. 9B is a graph showing the importance of the site 3 interface in ternary complex formation. SPR sensograms obtained by injecting cytokines (IL-19 or IL-20, at 250 nM) and/or receptors (IL-20R1 or M3, at 425 nM), as labeled on the figure, over an IL-20R2 coupled biacore chip. Injection of IL-20+IL-20R1 results in a large response consistent with ternary complex formation. However, injection of IL-20+M3, an IL-20R1 site 3 mutant with S190^IL-20R1, W194^IL-20R1, and W207^IL-20R1 mutated to alanine drastically reduces binding due to disruption of ternary complex formation. Similar results are observed for complex formation by IL-19. FIG. 9C is a ribbon diagram of the superposition of the D2 domains of GHR site 1, IL-6R, and IL-20R1. The positions of the D2 domains of GHR site2, GP130, and IL-20R2 are shown, along with a schematic of the differences in their orientations. FIG. 9D is a ribbon diagram showing the putative model of the IL-22/IL-22R1/IL-10R2 complex based on the IL-20 ternary complex structure. […]

The test “IL-20” has as its target B1. Kind of test: SPR, IL-20 as analyte over IL22R1ddq/IL20R2-FCkh as ligand. (In general: Surface plasmon resonance follows binding to a sensor surface in real time, without labels.)
The target of the next test is T2, IL-22 (Homo sapiens (Human), UniProt Q9GZX6 35-179, limits assumed).
T2 construct: also called IL-22 wt
T2 sequence: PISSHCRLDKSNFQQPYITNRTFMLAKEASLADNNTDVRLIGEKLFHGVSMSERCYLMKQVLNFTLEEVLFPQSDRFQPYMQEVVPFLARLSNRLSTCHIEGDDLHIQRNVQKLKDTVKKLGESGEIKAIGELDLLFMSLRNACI
In words: SPR, IL-22 as analyte over IL22R1ddq/IL20R2-FCkh as ligand.

A further test concerns the target T3, IL-19 (human, UniProt Q9UHD0 25-177).
T3 construct: also called Interleukin-19; IL-19a
T3 sequence: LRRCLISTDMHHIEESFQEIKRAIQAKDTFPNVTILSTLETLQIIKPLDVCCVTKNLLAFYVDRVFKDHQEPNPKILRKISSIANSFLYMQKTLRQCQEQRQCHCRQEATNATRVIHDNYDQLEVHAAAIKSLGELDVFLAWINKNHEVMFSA
In words: SPR, IL-19 as analyte over IL22R1ddq/IL20R2-FCkh as ligand.

On to B1, for which the “fold difference in binding affinity against IL-19” value in the test with IL22R1ddq/IL20R2-FCkh was 100 fold. Also, the binding result in the test with IL-20R1 triple mutant M3 is “binds”.

One may read the Kd as a measure of binding affinity in units of concentration. The kon is the second-order rate constant of association. Higher therefore signals faster complex formation. For B2, the figures for the Kd in the test with IL-20, in the test with IL-22 and with IL-19 were 0.99 nM, 5.15 nM and 101 nM, respectively. Also, the kon with IL-22 was around 957000 M⁻¹ s⁻¹.
